167 variants from the RNAGym collection of RNA variant scans (doi:10.1073/pnas.2313332121) can be followed below.

To fix the notation:
B1: TPR t1 (parent)
chain: GACCAAUCUGCCCUCAGAGCUCGAGAACAUCUUCGGAUGCAGAGGAGGCAGGCUUCGGUGGCGCGAUAGCGCCAACGUCCUCAACCUCCAAUGCAUCCCACCACAUGAUGAUGCCUGAAGAGCCUUGGUUUUUUG

Variants of B1 are the subject of this data set. Put plainly: polymerase ribozyme fitness, log enrichment relative to wild type (log ratio); higher = more active; in vitro selection for triplet polymerase activity. In outline:
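Libraries of mutants in each subunit of a heterodimeric triplet polymerase ribozyme were generated by PCR and transcribed. In triplicate, each went through one in vitro selection round: annealing with biotinylated primer, partner subunit and triplets; frozen incubation at −7 °C; gel excision of extended constructs; streptavidin-bead capture; RT-PCR. Fitness, taken from Illumina sequencing of input and output libraries, is the logarithm of a genotype's enrichment over wild-type enrichment, averaged across replicates with inverse-variance weights. The logarithm is base 2, and genotypes needed ≥10 input reads and ≥1 read per output to be kept.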
Regarding C56U U112C A118C, the “polymerase ribozyme fitness (log ratio)” value was determined as 1.53.
Take C22G C53G C123G: the “polymerase ribozyme fitness (log ratio)” value was -2.61.
The same measure for G61C C64A C94G G113C C124A: -6.83.
On to C8A C20U A105G U112C G113A, for which the “polymerase ribozyme fitness (log ratio)” value was -0.707.
The same measure for G48C A90U U112G: -2.32.
The same measure for G45U G127U: -3; for G35U G45U G61U C97A C123G: -5.69.
The same measure for A18C C89G C114A U130A: -3.2; for U9G A66C C104U: -0.809; for U33G: -5.67.
On to C11U C15U C56U C72U, for which the “polymerase ribozyme fitness (log ratio)” value is -1.82.
Consider C12U C49A, for which the “polymerase ribozyme fitness (log ratio)” value came out at 0.257.
As for G120A G122A G128C, the “polymerase ribozyme fitness (log ratio)” value was -2.03.
The value for A84C U130A was -0.44; that for C49A G110A was -1.34; that for G61A G117A was -0.803.
The same measure for A6U C11U G71C: -0.83; for A18G C20G C31A G60C C99A G110U: -1.91.
With C8G C86G C89U G93A, the “polymerase ribozyme fitness (log ratio)” value was -0.898.
The same measure for G42A G63C C94G U130G: -4.71; for U9C A27C: -2.15.
Regarding A18U C49G C88A C101A C123U U126A, the “polymerase ribozyme fitness (log ratio)” value is -4.99.
Turning to C40U G113C, the “polymerase ribozyme fitness (log ratio)” value is -2.55.
The value for C3A G110C was -5.4.
The same measure for C56U U87C C94U A95C G113A: -2.65.
The same measure for A37U G42C G57C C70U U129A: -5; for A46G A121U U126A: 0.577.
For the variant A27U G47A C49U U96A A119U, the “polymerase ribozyme fitness (log ratio)” value is -5.56.
The value for G69C G77A C88A G127A U129A was -5.53; that for A24U G36U U87C A90G G120U C124A U130G was -6.87.
The value for A29G G71U A83U was -1.51; that for C11A G45U G71C A121C U132A was -0.245.
The value for G71A C86A was -1.85; that for A27U G52A C73A A91C U112A was -4.52.
Turning to C34A C76U G120C, the “polymerase ribozyme fitness (log ratio)” value is -3.22.
In the case of A41G G117C, the “polymerase ribozyme fitness (log ratio)” value was -4.18.
The same measure for U78C C89U G93U: -1.09; for C8U C98U: -1.28.
The same measure for C4U G48A G52A U92A: -5.54; for G10A C22U: -4.59.
The same measure for G10U G71A: -0.104.
For C79A A105U, the “polymerase ribozyme fitness (log ratio)” value is -4.41.
The same measure for A41U C62A: -2.71; for G10U G48C G60A: -0.865; for C12U G17C C72G C82G U112C C123U U131C: -3.8.
The same measure for C73U C89G A100U: -2.03; for A43U C102U: -3.44.
Take A83C G107C: the “polymerase ribozyme fitness (log ratio)” value was -2.05.
The same measure for C12A U116A: -4.12; for A37C C64U U87A G117U: -3.55; for G69C U132A: -2.03.
The value for C3U A27U G61A was -3.78; that for C20G G42A G45A U54G C79U C123U was -6.38; that for C13U G69U C124U G135C was 2.21.
As to G51C U78C A121C G122U C124A, the “polymerase ribozyme fitness (log ratio)” value is -4.73.
Take A2G G117A: the “polymerase ribozyme fitness (log ratio)” value was -1.6.
The value for C22U U59C A100C was -3.95; that for C11G C79A G120C was 1.11.
For C72G C73A A121G, the “polymerase ribozyme fitness (log ratio)” value is 0.168.
The value for U78C U116G G117A was -2.14.
The same measure for C73A A95G C104A G110U: -3.5; for C64G A66G G69C C82A A105U: -3.01.
The same measure for C20A A37C G47C A83U U133G: -4.54; for A43U: -1.2; for G44U U133G: -1.78.
Turning to U14A C62G C89U C123A, the “polymerase ribozyme fitness (log ratio)” value was -3.6.
The same measure for C11U U32A G93A A100U A105G: -4.99; for A5G C72U: -0.625.
The same measure for C53A U81C U109A G110U U126G: -5.92; for C22A C73G: -4.45; for U7G G52C A90C U130A: -1.64.
The value for U92A G113A U125C was -3.27.
For G63U U112A, the “polymerase ribozyme fitness (log ratio)” value is -0.0798.
The same measure for C11G C22U G61C A83G: -6.84; for G48C C76U C88U: -1.76.
The value for C34A C73U A74U was -3.25; that for A16G U109C was -5.19.
The same measure for A16G G42C A43C C123A: -3.43; for G57U C72U U109A C114G: -5.21.
For the variant G63C G93A U112G, the “polymerase ribozyme fitness (log ratio)” value was -0.619.
For the variant G63A A111U G122A, the “polymerase ribozyme fitness (log ratio)” value was -6.48.
Take A5G A6U G61C A66U: the “polymerase ribozyme fitness (log ratio)” value is -1.7.
The value for C72A A90U C115U was -1.55.
The value for A84G G113U was -2.8.
For the variant C56A G69U C88G C115U, the “polymerase ribozyme fitness (log ratio)” value is -1.62.
The same measure for C49G U54C G63C C88G U106G: -5.67.
The value for C40U A95C was -1.45; that for C53A U96A U106A G120A was 0.0353.
The same measure for G52C C56A C72G U132C: -3.89; for C13U C34A U78G: -3.35.
For A18G G48U, the “polymerase ribozyme fitness (log ratio)” value is -2.96.
The value for C8A G42A C73U was -1.21.
The value for A29U C114U G120C C123U G128C was -4.45.
The value for A37U C70A U109A was -6.47.
As for C70U C98A, the “polymerase ribozyme fitness (log ratio)” value was -4.77.
The value for U78A C79U U112A U131G was 0.67.
The same measure for G10A C13A C70U: -1.36; for G42C C70A C104U: -4.4.
The value for C13A G42U was -3.39.
With A16G C40G C124A, the “polymerase ribozyme fitness (log ratio)” value was 0.0509.
The value for C56U C72A G122A was -1.69; that for C53U C72U U87G G117C was -3.81.
As for G57C C64A C124U, the “polymerase ribozyme fitness (log ratio)” value was -6.08.
Consider C11A G60U C97A C123U, for which the “polymerase ribozyme fitness (log ratio)” value was -2.32.
The value for C11G C53G was -1.43; that for G17U G71U U81C C89G A119G G128A was -4.58; that for C8G A46C C97G C101A C114A U130C was -6.93.
The same measure for G48A C72U A119U: -0.826.
The same measure for A16U A37C C73G U112C U133G: -1.75.
Consider C49A G71A, for which the “polymerase ribozyme fitness (log ratio)” value was -0.646.
The value for G69A C88A was -1.98; that for G71A A90C G120A was -1.97; that for A27C G39A A41G was -4.08.
The same measure for A27G C40U: -2.39; for A2U C70U: -2.28; for C72A U87C C88G U116G: -3.6.
The value for A66C U78C was -1.36.
C56A A74C C98U: the “polymerase ribozyme fitness (log ratio)” value was -0.178.
For the variant C3U G107A C124G G128A U133G, the “polymerase ribozyme fitness (log ratio)” value was -4.53.
The same measure for C15G C40U G61A C89U A91C C123G: -0.621; for U7C C15U G45A U92A: -4.93; for C28A C80U A111G: -5.64.
Turning to C12U G17U A50G U112A, the “polymerase ribozyme fitness (log ratio)” value came out at 0.845.
The value for C3A A37U was -2.19; that for C40G C49G G51A C76U was -4.64; that for C11U G135A was -1.27.
For the variant A43U A91U G110A G120C, the “polymerase ribozyme fitness (log ratio)” value was -5.56.
As for U125A U131G, the “polymerase ribozyme fitness (log ratio)” value came to 0.203.
The same measure for C3G C8G U32C C115G: -2.01.
The same measure for G10U U59A G71U: -2.51.
The same measure for C11U C53U C73U C85A A121G C123G U126G U129C U130A: -3.11; for G61U G110U A111U: -4.03.
As to U87G G110U, the “polymerase ribozyme fitness (log ratio)” value is -0.69.
The same measure for G122A U130G: -1.01; for C15A G69A C104U: -4.06.
Take C3U C40G G47A C62U A84G: the “polymerase ribozyme fitness (log ratio)” value was -3.81.
Regarding C11G C49U C73A G77A C102U G110U, the “polymerase ribozyme fitness (log ratio)” value is -6.69.
The value for C13U C28U C40U A74U C124A was -1.32; that for U32G G35U C40U C86U A121U was -5.02; that for U7A C13U C15U G44U G77U was -2.35.
The same measure for A26U C34A C40U G110U: -6.16; for G117A G135C: -1.41; for G48U G63A: -1.96.
For the variant A66C C94A C114G G120C, the “polymerase ribozyme fitness (log ratio)” value was -5.33.
Consider C86U U92C C115A C124A G127A, for which the “polymerase ribozyme fitness (log ratio)” value is -1.31.
The same measure for G63U A84G: -2.18; for C4U A26G C28U C40A C64A C123U: -6.51.
The same measure for C15U G58A G61U: -1.4.
A84U U92G: the “polymerase ribozyme fitness (log ratio)” value is -3.25.
The same measure for C13U A27U: -2.33.
The value for G48U U54C C73G C82G G113A G122A U126G was -6.92; that for A26U G65A G93C C98U C123U was -6.78.
The value for C123U U125G was 1.08.
With C8A G44U G52A C72A, the “polymerase ribozyme fitness (log ratio)” value is -0.705.
The value for A26U U78A was -3.18; that for U9A A118G was 0.108.
The value for G57A G127U was -1.83; that for A43G A74G C89U U109G was -7.22; that for C49G G71A C124G was 0.642.
The same measure for G35U C123G: -2.32.
For the variant A18C C20G G47U G48U, the “polymerase ribozyme fitness (log ratio)” value is -4.66.
A2G C13U A46U C62A C86A G113U G120U C123G: the “polymerase ribozyme fitness (log ratio)” value is -6.73.
The same measure for U59C A105U: -2.63; for U9G A37U G42C C86A U112A: -2.41; for G44C A111G: -0.351.
The value for C49G G120C was 1.11; that for C53G G128C was -2.03.
